Target: T1, GFP-B-MYB (human, UniProt P10244 1-700)
T1 construct: B-MYB, human, full length, fused to eGFP; The truncated derivatives were cloned in peGFP-C1, 2 or 3, which would put GFP at the N-terminus; also called GFP/B-MYB fusion protein; peGFP-B-MYB; source: HEK293T, stably expressing (lentiviral) or transfected, in lysate
T1 sequence (looked up): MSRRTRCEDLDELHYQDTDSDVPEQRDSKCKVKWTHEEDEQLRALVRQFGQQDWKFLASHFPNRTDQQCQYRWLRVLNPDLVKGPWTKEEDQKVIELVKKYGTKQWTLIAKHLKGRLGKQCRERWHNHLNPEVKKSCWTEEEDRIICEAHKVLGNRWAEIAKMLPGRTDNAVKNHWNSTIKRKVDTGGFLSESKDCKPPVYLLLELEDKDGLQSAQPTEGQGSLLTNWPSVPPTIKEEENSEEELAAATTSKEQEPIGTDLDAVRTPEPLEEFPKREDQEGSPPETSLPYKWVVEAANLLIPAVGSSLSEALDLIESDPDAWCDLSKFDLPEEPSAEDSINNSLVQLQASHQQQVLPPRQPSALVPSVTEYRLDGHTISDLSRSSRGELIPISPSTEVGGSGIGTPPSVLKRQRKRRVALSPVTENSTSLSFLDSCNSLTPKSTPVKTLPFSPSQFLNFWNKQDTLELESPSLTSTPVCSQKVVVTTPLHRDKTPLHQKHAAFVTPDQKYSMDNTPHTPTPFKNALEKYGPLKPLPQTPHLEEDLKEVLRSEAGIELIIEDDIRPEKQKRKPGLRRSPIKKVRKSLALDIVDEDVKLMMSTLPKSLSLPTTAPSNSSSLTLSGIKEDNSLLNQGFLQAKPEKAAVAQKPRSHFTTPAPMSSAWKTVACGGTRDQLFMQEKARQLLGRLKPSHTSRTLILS
Assay: co-IP; GFP-trap beads, 3 h at 4 °C, extracts of HEK293T cells in ELB buffer (50 mM Tris/HCl pH 7.5, 120 mM NaCl, 0.2% NP-40) expressing the GFP fusion bait; Western blot of bound proteins; in Fig. 3 cells pre-incubated with 10 μM BrdU and irradiated or not with UV-C
Settings: partners not purified

B1: zinc finger MYM-type protein 4 (ZMYM4), endogenous (natural protein, human (endogenous in HEK293T), UniProt Q5VZL5 1-1548, looked up)
chain: MAEREVESGPRKRFEQKSGAVFDEIVENCGGIMDTEMSEDIDHNLTPTLDSMSYGMPNQTGSENSLLDEDDYFLNSGDLAGIPVVGSDNEDEQDFSSKDNLVSSIHTDDSLEVERRVTQHESDNENEIQIQNKLKKDFPKQFDQVSVFKSIRKDFSLVRENSKETFSGKEKNRDLTYEREKRLDKPHKDLDSRLKSSFFDKAANQVEETLHTHLPQTPETNFRDSSYPFANKESIGSELGNSFASNIRIKEEPLDDEYDKAMAPQQGLLDKIKDEPDNAQEYSHGQQQKTQEGELKISAVFSVSGSPLAPQLTTGFQPSLASSGMNKMLPSVPATAVRVSCSGCKKILQKGQTAYQRKGSTQLFCSTLCLTGYTVPPARPPPPLTKKTCSSCSKDILNPKDVISAQFENTTTSKDFCSQSCLSTYELKKKPIVTINTNSISTKCSMCQKNAVIRHEVNYQNVVHKLCSDACFSKFRSANNLTMNCCENCGGYCYSGSGQCHMLQIEGQSKKFCSSSCITAYKQKSAKITPCALCKSLRSSAEMIENTNSLGKTELFCSVNCLSAYRVKMVTSAGVQVQCNSCKTSAIPQYHLAMSDGSIRNFCSYSCVVAFQNLFNKPTGMNSSVVPLSQGQVIVSIPTGSTVSAGGGSTSAVSPTSISSSAAAGLQRLAAQSQHVGFARSVVKLKCQHCNRLFATKPELLDYKGKMFQFCGKNCSDEYKKINNVMAMCEYCKIEKIVKETVRFSGADKSFCSEGCKLLYKHDLAKRWGNHCKMCSYCLQTSPKLVQNNLGGKVEEFCCEECMSKYTVLFYQMAKCDACKRQGKLSESLKWRGEMKHFCNLLCILMFCNQQSVCDPPSQNNAANISMVQAASAGPPSLRKDSTPVIANVVSLASAPAAQPTVNSNSVLQGAVPTVTAKIIGDASTQTDALKLPPSQPPRLLKNKALLCKPITQTKATSCKPHTQNKECQTEDTPSQPQIIVVPVPVPVFVPIPLHLYTQYAPVPFGIPVPMPVPMLIPSSMDSEDKVTESIEDIKEKLPTHPFEADLLEMAEMIAEDEEKKTLSQGESQTSEHELFLDTKIFEKDQGSTYSGDLESEAVSTPHSWEEELNHYALKSNAVQEADSELKQFSKGETEQDLEADFPSDSFDPLNKGQGIQARSRTRRRHRDGFPQPRRRGRKKSIVAVEPRSLIQGAFQGCSVSGMTLKYMYGVNAWKNWVQWKNAKEEQGDLKCGGVEQASSSPRSDPLGSTQDHALSQESSEPGCRVRSIKLKEDILSCTFAELSLGLCQFIQEVRRPNGEKYDPDSILYLCLGIQQYLFENGRIDNIFTEPYSRFMIELTKLLKIWEPTILPNGYMFSRIEEEHLWECKQLGAYSPIVLLNTLLFFNTKYFQLKNVTEHLKLSFAHVMRRTRTLKYSTKMTYLRFFPPLQKQESEPDKLTVGKRKRNEDDEVPVGVEMAENTDNPLRCPVRLYEFYLSKCSESVKQRNDVFYLQPERSCVPNSPMWYSTFPIDPGTLDTMLTRILMVREVHEELAKAKSEDSDVELSD
notes: ZMYM4 (zinc finger MYM-type protein 4), endogenous in HEK293T cells; In extracts made without NEM the protein is de-SUMOylated; also called endogenous ZMYM4; source: endogenous, HEK293T lysate
  fold increase of binding after UV irradiation (against non-irradiated cells, densitometry): 4.1 fold

From publication PMC7242444, “Characterization of the zinc finger proteins ZMYM2 and ZMYM4 as novel B-MYB binding proteins” (Scientific Reports, 2020)
